Experimental data reported in the supplement of paper PMC9170038.

Tested on: K4 kissing-loop RNA reporter
Assay: apparent KD of K4 kissing-loop reporter; higher = weaker reporter binding
Details: Eterna round: R107
Description: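 RNA-MaP round R107: designed RNA switches with theophylline, tryptophan, arginine or FMN aptamers are transcribed on-chip within common flanks. They are titrated with a labelled K4 kissing-loop RNA reporter in RNA-MaP buffer (100 mM Tris pH 7.5, 80 mM KCl, 4 mM MgCl2), without ligand or with the indicated ligand. Median apparent KD per design.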

[1] = input ligand: theophylline 20 uM
[2] = input ligand: tryptophan 2.4 mM
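Note: bound reporter read as fluorescence of individual clusters on recovered sequencing chips by microscopy, with normalized cluster intensities fitted with a binding model.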

| Sequence | apparent KD of K4 kissing-loop reporter (input ligand: FMN 200 uM) [nM] | apparent KD of K4 kissing-loop reporter (input ligand: arginine 13.2 mM) [nM] | apparent KD of K4 kissing-loop reporter (input ligand: none) [nM] | apparent KD of K4 kissing-loop reporter [1] [nM] | apparent KD of K4 kissing-loop reporter [2] [nM] |
| --- | --- | --- | --- | --- | --- |
| GGCGGCUGCGCGGAAGCGCAGCCGGCCGAUACCAGCGCGACGGCGCGCCCUUGGCAGCGGCGCCGAGUGAUGUUCGGCCUGCCGU [#2 Same State - Theophylline A Attempt #21 (HarryS)] | 122 | 82.2 | 95.3 | 124 | 117 |
| GGCGUCUAAAAGUGCCUAGAGAGAAAGGAUACCAGCACCCGGCGGUGCCCUUGGCAGCCUAGCCCAGUGAUGUUGGGUCCUCUAA [Lasorian] | 380 | 159 | 312 | 336 | 286 |
| GGCUAGACUUAGCUAGGUACAUAAUACGAUACCAGUCUAGAAAUAGACCCUUGGCAGCGUAGGCAGUGAUGUUGCCACUAGCUGA [Theo B SS t7] | 104 | 144 | 114 | 144 | 113 |
| GGGAACUCUUACGAUACCAGCCGGAGUGAUGUUCCGCGCUUGGACGUAGUAACCCGCACCGGCCCUUGGCAGCGUGGAUCUUAUA [Esbedi] | 89.9 | 73.5 | 73.9 | 82.7 | 83.1 |
| GGGAGAAGAGCGGCCGCCACUCAGAAAGAAGAAGAAUAUAGUGAUGUUAUAUAGGAAAGGAAGAAGAGGACCGGGCUUAAGAGGG [#18 K4 Tryptophan B Same State] | 144 | 132 | 149 | 177 | 171 |
| GGGAGCAAAGCUCCCGGAUGCUAUUACCAGUAGGAUAUCUGGAAACAGAGAAGGGCUAAGCCAGUGAUGUUGGUUUCGAGCAUCC | 596 | 575 | 754 | 575 | 514 |
| GGGCAUCAGGCUGAUACCAGUGAUAAAGGAUAAGAGACAGGGAGUGAUGUUCCCUUUACCCACCCUUGGCAGCAGUUUAAGUUUG [Exclusion Theophylline B GF 16] | 92.8 | 94.9 | 111 | 94.3 | 87.1 |
| GGGCAUGAUACGAUAAAAUAGUGGAGAGAUACCAGCGUUUUAGAUCGCCCUUGGCAGCUCUCGAGUGAUGUUCGGGUAGCUCUGA [Onedra] | 101 | 98.5 | 115 | 114 | 104 |
| GGGCGCGGCGCGGCCGCCACUGCGCCUGGGUGCUCGCUGAGUGAUGUUCGUCGGCGGUUGGGUGGUAGGACCGGGUGCUGGCCGG [BDazzled - #13 SS Tryptophan B] | 654 | 463 | 525 | 522 | 527 |
| GGGUCAGCGCGAAGGAGCGCCCUGACAGGUUGCUGCCGUGGGCAGUGAUGUUGCUCAGUCCGGCAGGUAGGUCGCGUGCUGACCC | 202 | 151 | 183 | 166 | 169 |
| GGGUCUGCCGGAAGGAGCGCACUAUGGAGUGAUGUUCCAUGACCGCACAGCUUGCGGUCAGUGCAGGUAGGUCGCCGGUAGCGUU [Inesor] | 163 | 154 | 175 | 177 | 162 |
| GGGUCUGUCGGAAGGAGCGCGCUAUGGAGUGAUGUUCCAUGACCGUACAGCUUACGGUCAGCGCAGGUAGGUCGCCGAUAGCGUU [Geordiar] | 153 | 116 | 142 | 151 | 120 |
| GGGUUGAGCGGAAGGAGCGGCUGAACCAGUGAUGUUGGUUAAUCCAAGUGAUGUUGGAAAAGCCAGGUAGGUCGCCGCUUUAUCC [Same State Arg B GF 3] | 979 | 533 | 1180 | 965 | 774 |
| GGUAGCAUGGCGGCCGCCACUACCUAGUGAUGUUAGGCUGUGGACAUAGGAGCAAAAUAAAUAUGUAGGACCGGGCCAUGCUACC | 127 | 101 | 121 | 126 | 123 |
| GGUAGCAUGGCGGCCGCCACUACCUAGUGAUGUUAGGCUGUGGACAUAGGAGCAAGAUAAAUAUGUAGGACCGGGCCAUGCUACC | 129 | 88.8 | 103 | 119 | 111 |
| GGUAGCAUGGCGGCCGCCACUCUAUGCGAGUGAUGUUCGCAGCUCAAAGAGCACCCGGGAACAGAGAGGACCGGGCCAUGCUACC | 294 | 228 | 261 | 302 | 213 |
| GGUAGCAUGGCGGCCGCCACUGAGGCCCUAUGCGAGUCCUCUACAACCUAGUGAUGUUAGGCGUCCAGGACCGGGCCAUGCUACC | 95.7 | 44.1 | 71.2 | 58.4 | 93 |

| Sequence | apparent KD of K4 kissing-loop reporter (input ligand: FMN 200 uM) [nM] | apparent KD of K4 kissing-loop reporter (input ligand: arginine 13.2 mM) [nM] | apparent KD of K4 kissing-loop reporter (input ligand: none) [nM] | apparent KD of K4 kissing-loop reporter [1] [nM] | apparent KD of K4 kissing-loop reporter [2] [nM] |
| --- | --- | --- | --- | --- | --- |
| GGUAGCAUGGCGGCCGCCACUUAGACUGGAUCGGAAACGAUCCAGUGAAAACGAGUGAUGUUCGUAAGGACCGGGCCAUGCUACC | 386 | 301 | 318 | 350 | 173 |
| GGUAGCAUGGCGGCCGCCACUUCAAAUGGAGUGAUGUUCCAAGGCAUCGCGAAAGCGAUGCCAGGAAGGACCGGGCCAUGCUACC | 831 | 859 | 522 | 566 | 143 |
| GGUCGAGUGAUGUUCGAUGUAGUGCAUUCAGAGGAUAUAGGAUGGGCUAGAAGGCUGAAAGGUGCUUCGAGUGAUGUUCGAGGAU [Exclusion FMN A GF 3] | 105 | 80.7 | 126 | 115 | 89 |
| GGUGACAACCAGAAGUGAUGUAUAGAAUAGCGAGGACCGGUACGGCCGCCACUCGUGAAGAGAAAGGAGUGAUGUUCCGUAAUGG [Kazoo C4] | 250 | 260 | 271 | 243 | 85.1 |
| GGUGACGGCCAGGAGUGAUGUAUAGAAUAGCGAGGACCGGUACGGCCGCCACUCGUGAAGAAAAGGGAGUGAUGUUCCGUAAUGG [Kazoo B] | 380 | 284 | 450 | 229 | 302 |
| GGUGCUGUCUGUGCCGCCCUCCUCGUCCCUCGAGGACCGGUACGGCCGCCACUCGAGUGAUGUUCGGGUAGCCAUCCCUGCUAGC [Bdazzled - #19 Exc. Tryptophan A] | 647 | 666 | 680 | 590 | 937 |
| GGUUUAUAAGAGGAUACCAGUACAAAUAAAGUACAUUAAUAGUAGAGUGAUGUUCUAAAGUACCCUUGGCAGCUUAGAUUAAGUU [ExTheophylB.F] | 114 | 226 | 151 | 217 | 85.4 |
| GGUUUAUAGGAGGAUACCAGUACGAAUAAAGUACAUUAAUAGUAGAGUGAUGUUCUAAAGUACCCUUGGCAGCUUAGAGUAAGUU [#18 K4 Theophylline B Exclusion] | 105 | 212 | 148 | 223 | 80.5 |
| GUACGCUCUCGAGUGAUGUUCGGUAAUAGUUAGGAUAUCGCUUUUGCGAGAAGGAACUGAAUGAGGAAACUCGUUCUGAGUGUAC [FMN A 18] | 618 | 183 | 342 | 398 | 239 |
| GUACGCUCUCGAGUGAUGUUCGGUAAUCGCGAGGAUAUCGCUUUUGCGAGAAGGCGCGGAAUGAGGAAACUCGUUCUGAGUGUAC [FMN A 23] | 364 | 444 | 461 | 637 | 715 |
| GUAGAUAGGCUACAUCUCUAGUCUAAACACUAGGAUAUCAGGAAACUGAGAAGGAGUGUCAUUGGAGUGAUGUUCCAAGAAUAAU [KL-SSFMN-A17] | 166 | 195 | 185 | 225 | 167 |
| GUAGGAUGAGGAGGAGGAUGAAAUACUGAAGGAGCGCAGAGAAAUGCAGGUAGGUCGCGGUAAGGAAGUAUAGUGAUGUUAUAUA [#07 K4 Arginine A Same State] | 414 | 367 | 664 | 755 | 449 |
| GUAGGAUGAGGAGGAGGAUGAAUUACUGAAGGAGCGCAAAGAAAUGCAGGUAGGUCGCGGUAAAGAAGUAUAGUGAUGUUAUAUA [SSArgA.E] | 400 | 301 | 413 | 426 | 310 |
| GUAUAUCGAACUGAUACCAGAGAAUAAAGCAGUGAUGUUGCAUAUAUAAAUAAGACUCGACUCCCUUGGCAGCGGGAAGAUAUAC [On purpose 1] | 170 | 231 | 197 | 280 | 146 |
| GUAUCGCUAGGAGGAUAUUCCAUUUUACAUAGAAAUGGCUAUGCGAAGUGAUGUUUCGAUUUACGGGAAGAAGGCCUAGUGAUAC [FMN B 22] | 160 | 148 | 148 | 177 | 155 |
| GUAUCGCUAGGAGGAUAUUUCAAUUUGACUCUUUGAGUUAAUACGGAGUGAUGUUCCGUUUUACGGAAAGAAGGCCUAGUGAUAC [FMN B 14] | 115 | 150 | 192 | 172 | 166 |
| GUAUGUGGAAACACGUACUUAUAUCCUCGACAGGAUAUGCGGAAACGCAGAAGGGUCGCCAACGAGUUUAUCCAGUGAUGUUGGA [Ex FMN A 15] | 347 | 296 | 362 | 335 | 350 |
